Experimental data: patent US20090202980A1 (CROSSBETA BIOSCIENCES B V, published 2009)
Where “and” joins values, the source holds several entries; their conditions need not be identical. Identical values can stand only once. Each block holds one binder with its values, some of them ahead of it.

B5: tPA-F-EGF-GST (finger and EGF domains of human tPA with C-terminal GST tag) (other, UniProt P00750 36-122, looked up)
chain: SYQVICRDEKTQMIYQQHQSWLRPVLRSNRVEYCWCNSGRAQCHSVPVKSCSEPRCFNGGTCQQALYFSDFVCQCPEGFAGKCCEID
notes: domain: F-EGF; also called F-EGF-tPA; not shown: vector residues and thrombin cleavage site; Schistosoma japonicum glutathion-S-transferase (GST) tag
B7: human factor XII (Hageman factor) (enzyme, UniProt P00748 20-615, looked up)
chain: IPPWEAPKEHKYKAEEHTVVLTVTGEPCHFPFQYHRQLYHKCTHKGRPGPQPWCATTPNFDQDQRWGYCLEPKKVKDHCSKHSPCQKGGTCVNMPSGPHCLCPQHLTGNHCQKEKCFEPQLLRFFHKNEIWYRTEQAAVARCQCKGPDAHCQRLASQACRTNPCLHGGRCLEVEGHRLCHCPVGYTGAFCDVDTKASCYDGRGLSYRGLARTTLSGAPCQPWASEATYRNVTAEQARNWGLGGHAFCRNPDNDIRPWCFVLNRDRLSWEYCDLAQCQTPTQAAPPTPVSPRLHVPLMPAQPAPPKPQPTTRTPPQSQTPGALPAKREQPPSLTRNGPLSCGQRLRKSLSSMTRVVGGLVALRGAHPYIAALYWGHSFCAGSLIAPCWVLTAAHCLQDRPAPEDLTVVLGQERRNHSCEPCQTLAVRSYRLHEAFSPVSYQHDLALLRLQEDADGSCALLSPYVQPVCLPSGAARPSETTLCQVAGWGHQFEGAEEYASFLQEAQVPFLSLERCSAPDVHGSSILPGMLCAGFLEGGTDACQGDSGGPLVCEDQAAERRLTLQGIISWGSGCGDRNKPGVYTDVAYYLAWIREHTVS
notes: also called FXII; fXII
B9: recombinant tissue-type plasminogen activator (tPA) (enzyme, human, UniProt P00750 36-562, looked up)
chain: SYQVICRDEKTQMIYQQHQSWLRPVLRSNRVEYCWCNSGRAQCHSVPVKSCSEPRCFNGGTCQQALYFSDFVCQCPEGFAGKCCEIDTRATCYEDQGISYRGTWSTAESGAECTNWNSSALAQKPYSGRRPDAIRLGLGNHNYCRNPDRDSKPWCYVFKAGKYSSEFCSTPACSEGNSDCYFGNGSAYRGTHSLTESGASCLPWNSMILIGKVYTAQNPSAQALGLGKHNYCRNPDGDAKPWCHVLKNRRLTWEYCDVPSCSTCGLRQYSQPQFRIKGGLFADIASHPWQAAIFAKHRRSPGERFLCGGILISSCWILSAAHCFQERFPPHHLTVILGRTYRVVPGEEEQKFEVEKYIVHKEFDDDTYDNDIALLQLKSDSSRCAQESSVVRTVCLPPADLQLPDWTECELSGYGKHEALSPFYSERLKEAHVRLYPSSRCTSQHLLNRTVTDNMLCAGDTRSGGPQANLHDACQGDSGGPLVCLNDGRMTLVGIISWGLGCGQKDVPGVYTKVTNYLDWIRDNMRP
notes: Commercial full-length recombinant tPA; also called Alteplase; Actilyse

Tests used:
[1] = target: T1, human amyloid-β peptide Aβ(1-40) (human); experiment: ELISA, coated ligand, anti-GST detection
T1 construct: also called hAβ(1-40); amyloid-β(1-40)
T1 sequence (peptide, as listed by the source): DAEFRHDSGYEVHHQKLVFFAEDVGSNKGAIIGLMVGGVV
Description: FIG. 13. […] “Control,” medium before the pull-down, “Aβ,” washed amyloid Aβ pellet, after the pull-down, “Sup,” medium after extraction with Aβ. […] MΔIAPP was coated as non-amyloid negative control (Panel E). […] The same sections were incubated with Congo red (Panels I, K, and M) to locate amyloid deposits. Panels N and O: Pull-down assay with insoluble Aβ fibrils and finger domains. […] “Control,” medium before the pull-down, “Aβ,” washed amyloid Aβ pellet, after the pull-down, “Sup,” medium after extraction with Aβ.

[2] = target: B5; experiment: ELISA, 25 µg/ml peptide immobilized, excess εACA, anti-GST detection
[3] = target: B7; experiment: ELISA, coated ligand, FXII concentration series, 10 mM εACA
Text: (§1) Wells were coated in triplicate. […] Ten μg of the peptides that contain cross-β structure, as well as the negative control peptide MΔIAPP and phosphate-buffered saline (PBS), were spotted in duplicate onto methanol-activated nitrocellulose.

[4] = target: B9; experiment: ELISA, 25 µg/ml peptide immobilized on Exiqon plates
[5] = target: B7; experiment: ELISA, factor XII immobilized, β2gpi concentration series, detection with antibody 2B2
[6] = target: B9; experiment: ELISA, tPA immobilized, β2gpi concentration series, detection with antibody 2B2
[7] = target: T1, human amyloid-β peptide Aβ(1-40); experiment: ELISA, Aβ coated on plate, plasmin overlaid
[8] = target: T1, human amyloid-β peptide Aβ(1-40); experiment: ELISA, 25 µg/ml peptide immobilized, excess εACA, anti-GST detection
[9] = target: B7; experiment: ELISA, immobilized peptide
[10] = target: T2, Fn F4-5-GST (finger domains 4-5 of human fibronectin with C-terminal GST tag) (human; Schistosoma japonicum, UniProt P02751 182-276); experiment: ELISA, immobilized peptide
T2 construct: domain: fibronectin type I domains 4-5; Printed in places as Fn F4-S-GST (a misprint of F4-5); also called Fn F4-S-GST; fibronectin F4-5; not shown: (G)RP vector residues and thrombin cleavage site; Schistosoma japonicum glutathion-S-transferase (GST) tag
T2 sequence (P02751 182-276, tags left off): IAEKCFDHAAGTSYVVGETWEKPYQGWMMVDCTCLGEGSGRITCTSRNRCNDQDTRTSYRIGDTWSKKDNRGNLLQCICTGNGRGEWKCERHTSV

[11] = target: B9; experiment: ELISA, immobilized peptide, 10 mM εACA
[12] = target: T1, human amyloid-β peptide Aβ(1-40); experiment: pull-down with Aβ fibrils, Western blot
Description: “Control,” medium before the pull-down, “Aβ,” washed amyloid Aβ pellet, after the pull-down, “Sup,” medium after extraction with Aβ. […] MΔIAPP was coated as non-amyloid negative control (Panel E). […] The same sections were incubated with Congo red (Panels I, K, and M) to locate amyloid deposits. Panels N and O: Pull-down assay with insoluble Aβ fibrils and finger domains. […] “Control,” medium before the pull-down, “Aβ,” washed amyloid Aβ pellet, after the pull-down, “Sup,” medium after extraction with Aβ.
Conditioned medium was used for pull-down assays using Aβ and IAPP fibrils, followed by Western blot analyses.

[13] = target: T1, human amyloid-β peptide Aβ(1-40); experiment: ELISA, coated ligand, FXII concentration series, 10 mM εACA
Text: as §1

[14] = target: B7; experiment: dot blot, 10 µg peptide spotted, 2 nM FXII
Text: Ten μg of the peptides that contain cross-β structure, as well as the negative control peptide mΔIAPP and phosphate-buffered saline (PBS), were spotted in duplicate.

[15] = target: T1, human amyloid-β peptide Aβ(1-40); experiment: ELISA on Exiqon plates
[16] = target: T1, human amyloid-β peptide Aβ(1-40); experiment: kD of tPA binding to coated hAβ(1-40), quoted for the competitive ELISA
[17] = target: T3, advanced glycation end product-modified bovine serum albumin, glycated with glucose-6-phosphate (albumin-g6p) (bovine, UniProt P02769 25-607, glycated with glucose-6-phosphate (advanced glycation end products; 59 lysine and 23 arginine residues and the N-terminus are potential glycation sites)); experiment: kD of tPA binding to coated albumin-AGE, quoted for the competitive ELISA
T3 construct: adopts cross-β structure; also called albumin-AGE; glycated albumin
T3 sequence (P02769 25-607 limits assumed): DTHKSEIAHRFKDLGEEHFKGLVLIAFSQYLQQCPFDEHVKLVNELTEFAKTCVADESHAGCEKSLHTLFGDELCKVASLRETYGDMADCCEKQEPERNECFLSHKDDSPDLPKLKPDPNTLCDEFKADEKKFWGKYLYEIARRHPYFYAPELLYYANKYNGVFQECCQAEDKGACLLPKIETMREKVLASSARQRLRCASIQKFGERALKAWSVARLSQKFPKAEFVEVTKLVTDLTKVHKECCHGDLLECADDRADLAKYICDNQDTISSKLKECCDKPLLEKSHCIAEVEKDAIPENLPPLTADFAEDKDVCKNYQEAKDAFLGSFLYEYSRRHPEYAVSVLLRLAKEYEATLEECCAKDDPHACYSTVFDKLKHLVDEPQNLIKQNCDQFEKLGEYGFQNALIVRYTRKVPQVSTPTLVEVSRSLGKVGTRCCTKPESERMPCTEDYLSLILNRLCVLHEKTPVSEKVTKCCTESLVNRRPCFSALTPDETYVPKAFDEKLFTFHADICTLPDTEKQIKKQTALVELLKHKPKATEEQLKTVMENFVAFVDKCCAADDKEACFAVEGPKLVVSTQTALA

[18] = target: T1, human amyloid-β peptide Aβ(1-40); experiment: ELISA, 25 µg/ml peptide immobilized on Exiqon plates
[19] = target: T1, human amyloid-β peptide Aβ(1-40); experiment: ELISA, Aβ coated on plate, tPA overlaid

B1: tPA-F-GST (finger domain of human tPA with C-terminal GST tag) (other, UniProt P00750 36-85, looked up)
chain: SYQVICRDEKTQMIYQQHQSWLRPVLRSNRVEYCWCNSGRAQCHSVPVKS
notes: range 1-50; Expressed in 293T or BHK cells; Residues 1-50 count on mature tPA, not on the SwissProt precursor; also called tPA-F domain; F-tPA; not shown: (G)RP vector residues and thrombin cleavage site between domain and GST; Schistosoma japonicum glutathion-S-transferase (GST) tag
binding result [1]: binds

Binder: B5
Kd [8]: 2 nM

Binder: YTIAALLSPYS [amyloid fragment of transthyretin (TTR11)]
binding result [9]: binds
binding result [10]: binds
binding result [11]: binds

Binder: B7
Kd [13]: ~2 nM

B8: human IAPP amyloid core fragment (ΔhIAPP) (peptide)
peptide: SNNFGAILSS
notes: also called hΔIAPP; human amylin fragment
binding result [14]: binds

Binder: B9
Kd [15]: 46 nM
Kd [16]: 50 nM
Kd [17]: 1 nM
Kd [18]: 2 nM
Kd [19]: ~7 nM

Next, values leading:

Kd [2]: 2 nM
Kd [3]: ~11 nM
Kd [4]: 5 nM
B2: fibrin peptide 85 (FP13), human fibrin α-chain fragment α148-160 (peptide)
peptide: KRLEVDIDIKIRS
notes: also called fibrin fragment α147-159 FP13

Kd [5]: 0.9 µg/mL and 20 nM
Kd [6]: 2.3 µg/mL and 51 nM
B3: recombinant human β2-glycoprotein I (expressed in insect cells) (other, UniProt P02749 20-345, looked up)
chain: GRTCPKPDDLPFSTVVPLKTFYEPGEEITYSCKPGYVSRGGMRKFICPLTGLWPINTLKCTPRVCPFAGILENGAVRYTTFEYPNTISFSCNTGFYLNGADSAKCTEEGKWSPELPVCAPIICPPPSIPTFATLRVYKPSAGNNSLYRDTAVFECLPQHAMFGNDTITCTTHGNWTKLPECREVKCPFPSRPDNGFVNYPAKPTLYYKDKATFGCHDGYSLDGPEEIECTKLGNWSAMPSCKASCKVPVKKATVVYQGERVKIQEKFKNGMLHGDKVSFFCKNKEKKCSYTEDAQCIDGTIEVPKCFKEHSSLAFWKTDASDVKPC
notes: also called recombinant β2gpi; rβ2gpi

Kd [7]: 47 nM
B4: plasmin (activated plasminogen) (enzyme, UniProt P00747 97-810, looked up)
chain: KVYLSECKTGNGKNYRGTMSKTKNGITCQKWSSTSPHRPRFSPATHPSEGLEENYCRNPDNDPQGPWCYTTDPEKRYDYCDILECEEECMHCSGENYDGKISKTMSGLECQAWDSQSPHAHGYIPSKFPNKNLKKNYCRNPDRELRPWCFTTDPNKRWELCDIPRCTTPPPSSGPTYQCLKGTGENYRGNVAVTVSGHTCQHWSAQTPHTHNRTPENFPCKNLDENYCRNPDGKRAPWCHTTNSQVRWEYCKIPSCDSSPVSTEQLAPTAPPELTPVVQDCYHGDGQSYRGTSSTTTTGKKCQSWSSMTPHRHQKTPENYPNAGLTMNYCRNPDADKGPWCFTTDPSVRWEYCNLKKCSGTEASVVAPPPVVLLPDVETPSEEDCMFGNGKGYRGKRATTVTGTPCQDWAAQEPHRHSIFTPETNPRAGLEKNYCRNPDGDVGGPWCYTTNPRKLYDYCDVPQCAAPSFDCGKPQVEPKKCPGRVVGGCVAHPHSWPWQVSLRTRFGMHFCGGTLISPEWVLTAAHCLEKSPRPSSYKVILGAHQEVNLEPHVQEIEVSRLFLEPTRKDIALLKLSSPAVITDKVIPACLPSPNYVVADRTECFITGWGETQGTFGAGLLKEAQLPVIENKVCNRYEFLNGRVQSTELCAGHLAGGTDSCQGDSGGPLVCFEKDKYILQGVTSWGLGCARPNKPGVYVRVSRFVTWIEGVMRNN

binding result [12]: no binding
B6: tPA K1-GST (kringle 1 domain of human tPA with C-terminal GST tag) (other, UniProt P00750 123-210, looked up)
chain: TRATCYEDQGISYRGTWSTAESGAECTNWNSSALAQKPYSGRRPDAIRLGLGNHNYCRNPDRDSKPWCYVFKAGKYSSEFCSTPACSE
notes: domain: K1; not shown: vector residues and thrombin cleavage site; Schistosoma japonicum glutathion-S-transferase (GST) tag

binding result [9]: binds
binding result [11]: binds
Binder: AASIKVAVSADR [laminin α1-chain(2097-2108) amyloid core peptide (LAM12)]
